Source: patent US20120324600A1, “CONSTITUTIVE SYNTHETIC PLANT PROMOTERS AND METHODS OF USE” (SYNGENTA PARTICIPATIONS AG, priority 2010, published 2012)

Legend:
Format in all cases: in vivo
[1] = test system: transgenic soybean events; assay: tolerance to mesotrione herbicide spray of T1 transgenic soybean seedlings; conditions: sprayed at V2 stage, rated approximately 10 days post-application
Text: (§1) The first generation transgenic soybean events (T1) harboring SEQ ID NO: 3, SEQ ID NO: 4, SEQ ID NO: 5, SEQ ID NO: 6, or SEQ ID NO: 7 were characterized for segregation analysis, oat HPPD protein expression and tolerance to mesotrione herbicide spray. The green leaf tissues from the first trifoliate of five independent events were sampled to determine the segregation ratios (homozygous, heterozygous or null) of the individual seedlings as determined by zygosity Taqman® assays and oat HPPD protein expression by ELISA. At the V2 stage, the seedlings were sprayed with the HPPD inhibiting herbicide mesotrione and tolerance rating determined approximately 10 days post-application.

[2] = test system: oat HPPD protein expression; assay: oat HPPD protein expression by ELISA in T1 transgenic soybean events; conditions: inferred from ELISA and mesotrione tolerance of HOM vs HET siblings
Text: To express a synthetic oat (Avena sativa) 4-hydroxyphenylpyruvate dioxygenase (cAvHPPD) in stably transformed soybean, viral transcriptional and translational enhancers, and a minimal promoter were created by PCR or direct DNA synthesis and combined by standard DNA restriction digestion and ligation reactions. A synthetic plant promoter comprising defined components eFMV (SEQ ID NO: 1), eTMV (SEQ ID NO: 2), the Cauliflower Mosaic Virus 35S enhancer region (e35S) and a minimal promoter (pr35SCMP: Cestrum Yellow Leaf Curl virus TATA-box motif; no CAAT 35S-proximal promoter sequence) were combined to create SEQ ID NO: 3. Subsequently, SEQ ID NO: 3 was modified by digestion with a DNA restriction enzyme XhoI to remove defined components e35S, pr35SCMP (including the TATA-box motif) followed by a standard ligation reaction to create SEQ ID NO: 4. […] One skilled in the art would readily recognize other subelements which would be suitable to use.
The plasmids containing the synthetic plant promoter expression cassettes were transformed into soybean using Agrobacterium tumefaciens. […] Expression of cAvHPPD of surviving T0 plants was quantified by ELISA (Engvall E, Perlman P (1971). “Enzyme-linked immunosorbent assay (ELISA). Quantitative assay of immunoglobulin G”. Immunochemistry 8(9):871-874).
as §1

maize = assay: expression of a heterologous sequence in maize
Text: A similar strategy for building synthetic plant promoters for use in maize was implemented.

B1: SEQ ID NO: 3: synthetic plant promoter, subelements eFMV, e35S, pr35SCMP, eTMV; 625 bp (nucleic acid)
DNA: AGCTGCTTGTGGGGACCAGACAAAAAAGGAATGGTGCAGAATTGTTAGGCGCACCTACCAAAAGCATCTTTGCCTTTATTGCAAAGATAAAGCAGATTCCTCTAGTACAAGTGGGGAACAAAATAACGTGGAAAAGAGCTGTCCTGACAGCCCACTCACTAATGCGTATGACGAACGCAGTGACGACCACAAAACTCGAGACTTTTCAACAAAGGGTAATATCCGGAAACCTCCTCGGATTCCATTGCCCAGCTATCTGTCACTTTATTGTGAAGATAGTGGAAAAGGAAGGTGGCTCCTACAAATGCCATCATTGCGATAAAGGAAAGGCTATCGTTGAAGATGCCTCTGCCGACAGTGGTCCCAAAGATGGACCCCCACCCACGAGGAGCATCGTGGAAAAAGAAGACGTTCCAACCACGTCTTCAAAGCAAGTGGATTGATGTGATATCTCCACTGACGTAAGGGATGACGAACAATCCCACTATCCTTCTGCAGGTCGACTCTAGAGGATCCTATAAATAGGAAGTTCATTTCATTTGGAGAGGAAACCTCGAGTATTTTTACAACAATTACCAACAACAACAAACAACAAACAACATTACAATTACTATTTACAATTACA
modifications: synthetic plant promoter
notes: synthetic plant promoter, subelements eFMV, e35S, pr35SCMP, eTMV; 625 bp
tolerance to mesotrione herbicide spray [1]: significant initial damage to the homozygous (HOM) compared to the heterozygous (HET) siblings | transgene silencing in HOM plants [2]: indicative of transgene silencing | promotion of expression of a heterologous sequence in maize (maize): successfully used to promote the expression of a heterologous sequence in maize

B2: SEQ ID NO: 5: synthetic plant promoter, subelements eFMV, e35S, iUBQ3, pr35SCMP, eTMV; 1017 bp (nucleic acid)
DNA: AGCTGCTTGTGGGGACCAGACAAAAAAGGAATGGTGCAGAATTGTTAGGCGCACCTACCAAAAGCATCTTTGCCTTTATTGCAAAGATAAAGCAGATTCCTCTAGTACAAGTGGGGAACAAAATAACGTGGAAAAGAGCTGTCCTGACAGCCCACTCACTAATGCGTATGACGAACGCAGTGACGACCACAAAACTCGAGACTTTTCAACAAAGGGTAATATCCGGAAACCTCCTCGGATTCCATTGCCCAGCTATCTGTCACTTTATTGTGAAGATAGTGGAAAAGGAAGGTGGCTCCTACAAATGCCATCATTGCGATAAAGGAAAGGCTATCGTTGAAGATGCCTCTGCCGACAGTGGTCCCAAAGATGGACCCCCACCCACGAGGAGCATCGTGGAAAAAGAAGACGTTCCAACCACGTCTTCAAAGCAAGTGGATTGATGTGATATCTCCACTGACGTAAGGGATGACGAACAATCCCACTATCCTTCTGCAGGTCGACTCTAGAGGATCTTATAAATAGGTATATTTTCTGATTCTTTTTGTTTTTGATTCGTATCTGATCTCCAATTTTTGTTATGTGGATTATTGAATCTTTTGTATAAATTGCTTTTGACAATATTGTTCGTTTCGTCAATCCAGCTTCTAAATTTTGTCCTGATTACTAAGATATCGATTCGTAGTGTTTACATCTGTGTAATTTCTTGCTTGATTGTGAAATTAGGATTTTCAAGGACGATCTATTCAATTTTTGTGTTTTCTTTGTTCGATTCTCTCTGTTTTAGGTTTCTTATGTTTAGATCCGTTTCTCTTTGGTGTTGTTTTGATTTCTCTTACGGCTTTTGATTTGGTATATGTTCGCTGATTGGTTTCTACTTGTTCTATTGTTTTATTTCAGGTGGATCCTATAAATAGGAAGTTCATTTCATTTGGAGAGGAAACCTCGAGTATTTTTACAACAATTACCAACAACAACAAACAACAAACAACATTACAATTACTATTTACAATTACA
modifications: synthetic plant promoter
notes: synthetic plant promoter, subelements eFMV, e35S, iUBQ3, pr35SCMP, eTMV; 1017 bp
tolerance to mesotrione herbicide spray [1]: improved tolerance to the HPPD inhibitor herbicide mesotrione | transgene silencing in HOM plants [2]: relieve transgene silencing
